These results are taken from patent publication US8852550B2, “Chelator conjugates” (GE Healthcare Limited, priority 2001, dated 2014).

Data set [1] can be described thus: 99mTc labelling of Compound 5, radiochemical purity by ITLC and HPLC (Example 11). The format is physicochemical. The procedure:
A freeze-dried formulation containing: • 50 μg PABA (para-aminobenzoic acid), • 30 μg SnCl2, • 90 μg MDP (methylenediphosphonic acid), • 1.32 mg NaHCO3, • 98 μg Na2CO3, • 4 mg NaOAc, was sealed under nitrogen gas in a 10 ml glass vial. The vial was removed from freezer storage and left at room temperature for 15 minutes, and was then reconstituted with 100 μl of a solution containing Compound 5, ie. the peptide-chelator conjugate Ac-Asn-Gln-Glu-Gln-Val-Ser-Pro-(I-Tyr)-Thr-Leu-Leu-Lys-Gly-[Compound 1] (2 mg in 2 ml water) and Xml of ^99mTc-pertechnetate in saline, with a radioactive concentration of 0.5 GBq/ml, from an Amertec II ^99mTc generator at room temperature. The activity was measured using an ion chamber. The RCP was measured using ITLC and HPLC. The results are shown in Table 3 for different values of X: […]

The nature of data set [2]: 99mTc labelling of Compound 9, radiochemical purity by ITLC and HPLC (Example 13). It counts as physicochemical. How it is done: Compound 9 was prepared in an analogous manner to Examples 7 and 8, and labelled with ^99mTc in solution (Preparation 1) or via a freeze-dried kit according to Example 10 (Preparation 2).
For Preparation 1, 100 μg of Compound 9 was dissolved in 1 ml of pH 8.5 borate buffer. This was transferred to a P6 vial and sealed. 1 ml ^99mTc-pertechnetate in saline (1.0 GBq/ml, from an Amertec II generator) was added at room temperature, together with 0.1 ml SnCl2 solution (10 mg SnCl2 in 100 ml N2 purged saline). The activity was measured using an ion chamber. The RCP was measured using ITLC and HPLC.

[3] abbreviates: Prep 1, X 2 ml, 1.04 GBq, 255 min post-reconstitution.
The mark [4] stands for this setting: Prep 2, X 2 ml, 1 GBq, 15 min post-reconstitution.
[5] abbreviates: Prep 3, X 5 ml, 2.47 GBq, 15 min post-reconstitution.

Ends that are not written are not given here. Compound 1 = not defined here

Turning to “Ac-Asn-Gln-Glu-Gln-Val-Ser-Pro-(I-Tyr)-Thr-Leu-Leu-Lys-Gly-[Compound 1] (chain 1 Ac-NQEQVSP; chain 2 TLLKG-{Compound 1}; not fully specified (C-terminus); reading uncertain; also: chains 1 and 2 joined in one chain through I-Tyr) [Compound 5, peptide-chelator conjugate of Compound 1 with thrombus-targeting peptide]”, the “RCP % (ITLC)” value in data set [1] (Prep 1, X 2 ml, 1.04 GBq, 15 min post-reconstitution) worked out at 99.4%; in data set [1] (setting [3]), 99.2%; in data set [1] (setting [4]), 99.3%; in data set [1] (setting [5]) it was 99.3%; in data set [1] (Prep 4, X 2 ml, 1.02 GBq, 15 min post-reconstitution) it was 99.1%. Further, the “RCP % (HPLC)” value was 86.8% in data set [1] (setting [3]); 83.0% in data set [1] (setting [4]); 85.2% in data set [1] (Prep 2, X 2 ml, 1 GBq, 60 min post-reconstitution); 86.5% in data set [1] (setting [5]); 87.6% in data set [1] (Prep 3, X 5 ml, 2.47 GBq, 150 min post-reconstitution); 86.6% in data set [1] (Prep 4, X 2 ml, 1.02 GBq, 140 min post-reconstitution).
Turning to “[Compound 1]-Cys-Cys-Glu-Leu-Cys-Cys-Asn-Pro-Ala-Cys-Ala-Cys-Tyr-OH ({Compound 1}-CCELCCNPACACY-OH; reading uncertain; also: cyclic, bridges not given here, printed as [Compound 1]-Cys-Cys-Glu-Leu-Cys-Cys-Asn-Pro-Ala-Cys-Ala-Cys-Tyr-OH) [Compound 9]”, the “RCP by ITLC” value in data set [2] (Preparation 1: in solution, pH 8.5 borate buffer, room temperature) was found to be 96%. Besides, in data set [2] (Preparation 2: freeze-dried kit according to Example 10), the “RCP by HPLC” value is 82%.
